Laboratory results as given in patent US20250002610A1 (Genmab, published 2025).

Tests used:
[1] = target: T1, human FAPα (Fibroblast activation protein alpha), cell surface expressed (human, UniProt Q12884 1-760); assay: flow cytometry, human lung fibroblasts, n = 2
T1 construct: Endogenous on human lung fibroblasts and CAFs
T1 sequence: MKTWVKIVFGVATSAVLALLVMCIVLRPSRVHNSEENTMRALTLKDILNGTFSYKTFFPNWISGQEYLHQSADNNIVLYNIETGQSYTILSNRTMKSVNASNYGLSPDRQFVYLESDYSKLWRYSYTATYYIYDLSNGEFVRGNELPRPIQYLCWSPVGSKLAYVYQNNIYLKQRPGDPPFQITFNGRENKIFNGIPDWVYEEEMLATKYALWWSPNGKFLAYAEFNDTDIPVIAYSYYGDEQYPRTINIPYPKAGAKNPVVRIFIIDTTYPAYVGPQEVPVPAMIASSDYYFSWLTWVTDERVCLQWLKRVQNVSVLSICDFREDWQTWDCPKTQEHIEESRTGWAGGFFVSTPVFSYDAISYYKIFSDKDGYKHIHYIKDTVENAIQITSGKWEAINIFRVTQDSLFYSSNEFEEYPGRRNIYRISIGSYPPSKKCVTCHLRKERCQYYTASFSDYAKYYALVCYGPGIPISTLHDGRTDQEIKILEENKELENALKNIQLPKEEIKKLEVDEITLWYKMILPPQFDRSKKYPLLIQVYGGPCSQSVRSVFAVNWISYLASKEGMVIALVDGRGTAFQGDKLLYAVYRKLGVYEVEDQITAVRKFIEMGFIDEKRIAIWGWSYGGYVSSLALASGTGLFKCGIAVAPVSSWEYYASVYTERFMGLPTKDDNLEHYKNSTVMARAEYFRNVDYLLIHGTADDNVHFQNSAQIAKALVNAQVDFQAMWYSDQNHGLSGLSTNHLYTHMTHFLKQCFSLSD
Method: Human lung fibroblasts and CAFs (50,000 cells/well) were seeded in 96-Well round bottom plates (Greiner Bio-one, Cat #650101). Antibody dilutions were prepared using fluorescence-activated cell sorting (FACS) buffer, consisting of phosphate buffer saline (PBS, Lonza, Cat #BE17-517Q)+1% Bovine Serum Albumin (BSA, Roche, Cat #10735086001)+0.02% Sodium Azide (Bio-World, Cat #41920044-3). Plates were centrifuged, supernatant was removed, cells were resuspended in 50 μL of human Fc Block (BD, Cat #564220, diluted 1:100 in FACS buffer) and 50 μL of viability stain TO-PRO-3 Iodide (Thermo Fisher, Cat #T3605, diluted 1: 25,000 in FACS buffer), and incubated for 15 min at 4° C. Plates were washed three times with FACS buffer. Plates were centrifuged, supernatant was removed, cells were resuspended in 50 μL of antibody dilutions (concentration range 90-0.0005 μg/mL, three-fold dilution steps using FACS buffer) of BisG1-FAPα-FERL/DR4-FERR, BisG1-FAPα-FERL/b12-FERR, BisG1-b12-FERL/b12-FERR (top six concentrations only for CAFs culture) or IgG1-FAPα-FERL (top four concentrations only for CAFs culture) and incubated for 30 min at 4° C. Cells were washed three times with FACS buffer and resuspended in 50 μL of Fluorescein isothiocyanate (FITC)-labeled polyclonal antibody goat anti-mouse IgG1 (Jackson Immuno Research, Cat #109-096-097, diluted 1:100 in FACS buffer). […] Antibody binding to viable cells (TO-PRO-3 negative) was analyzed by flow cytometry on a FACSCelesta™ (BD biosciences) and data were processed using FlowJo_v10.8.1 (FlowJo LLC). Geomean fluorescence intensity, gMFI, was determined and visualized using GraphPad Prism. Binding curves were analyzed using nonlinear regression analysis. […]
Binding of FAPα-targeting monoclonal antibody clones, IgG1-FAPα-FEAL and IgG1-FAP5-FEAL, and bispecific antibodies carrying a binding arm derived from the two FAPα-binding clones (BisG1-FAPα-FEAL/b12-FEAR and BisG1-FAP5-FEAL/b12-FEAR) to human lung fibroblasts, which endogenously express FAPα, was compared and analyzed by flow cytometry.

[2] = target: T2, FcγRIIIa-V158 (CD16a Protein, Human, Recombinant (176 Val, His & AVI Tag)) (human, UniProt P08637 17-208); assay: SPR (Biacore 8K), His-tagged FcγRIIIa-V158 captured on an anti-His chip, antibody as analyte, endpoint response against concentration
T2 construct: Bought reagent; not shown: His & AVI tag
Method: Binding of BisG1-FAPα-FERL/DR4-FERR to immobilized human His-tagged FcγRs and FcRn was analyzed by SPR using a Biacore 8K SPR system (Cytiva). To this end, anti-His antibodies were covalently immobilized on the surface of Biacore Series S Sensor Chip CM5 (Cytiva, Cat. #29104988) using the Amine Coupling Kit (Cytiva, Cat. #BR100050) and a His Capture Kit (Cytiva, Cat. #29234602) according to the manufacturer's instructions. To assess antibody binding to immobilized human FcγRs, aliquots of the recombinant His-tagged FcγR proteins (Table 24) were diluted in HBS EP+Buffer pH 7.4 (Cytiva, Cat. #BR100669) and used to capture the FcγR proteins on the surface of the anti-His antibody-coated sensors using a flow rate of 10 μL/min and a contact time of 60 s. Captured levels ranged from 434 to 592 RU. After three start-up cycles of HBS-EP+Buffer, concentration ranges of BisG1-FAPα-FERL/DR4-FERR or IgG1-b12 antibodies (Table 25) were injected to generate binding curves on FcγR-captured sensors (active surface). For each antibody sample, a parallel flow cell without captured FcγRs was included (reference surface), which was used for RU background correction.
All sensorgrams were subtracted by the signal of the third start-up cycle with buffer only (mock analyte). […]

T2 sequence (P08637 17-208 F176V limits assumed): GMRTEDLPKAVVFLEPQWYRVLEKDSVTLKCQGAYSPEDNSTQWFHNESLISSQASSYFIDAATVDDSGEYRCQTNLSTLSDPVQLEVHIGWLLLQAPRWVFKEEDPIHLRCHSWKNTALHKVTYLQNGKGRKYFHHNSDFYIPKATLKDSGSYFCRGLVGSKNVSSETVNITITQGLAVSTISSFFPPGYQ

B1: BisG1-FAPα-FEAL/b12-FEAR (bispecific antibody, human IgG1, kappa)
heavy 1: EVQLLESGGGLVQPGGSPRLSCEASGFTFSSYALSWVRQAPGKGLEWVSAISGSGGGRYYADSVKGRFTISRDNSKNTLFLQMNSLRAEDTAVYYCAKEGYSSSGTYWDHWGQGTLVTVSSASTKGPSVFPLAPSSKSTSGGTAALGCLVKDYFPEPVTVSWNSGALTSGVHTFPAVLQSSGLYSLSSVVTVPSSSLGTQTYICNVNHKPSNTKVDKRVEPKSCDKTHTCPPCPAPEFEGGPSVFLFPPKPKDTLMISRTPEVTCVVVAVSHEDPEVKFNWYVDGVEVHNAKTKPREEQYNSTYRVVSVLTVLHQDWLNGKEYKCKVSNKALPAPIEKTISKAKGQPREPQVYTLPPSREEMTKNQVSLTCLVKGFYPSDIAVEWESNGQPENNYKTTPPVLDSDGSFLLYSKLTVDKSRWQQGNVFSCSVMHEALHNHYTQKSLSLSPG
light 1: AIQMTQSPSSVSASVGDRVTITCRASQGVSSWLAWYQQKPGRAPKLLIYVASTLQSGVPSRFSGSGSGTDFTLTINSLQPEDFATYYCQQANSFPPTFGQGTRLEMKRTVAAPSVFIFPPSDEQLKSGTASVVCLLNNFYPREAKVQWKVDNALQSGNSQESVTEQDSKDSTYSLSSTLTLSKADYEKHKVYACEVTHQGLSSPVTKSFNRGEC
heavy 2: QVQLVQSGAEVKKPGASVKVSCQASGYRFSNFVIHWVRQAPGQRFEWMGWINPYNGNKEFSAKFQDRVTFTADTSANTAYMELRSLRSADTAVYYCARVGPYSWDDSPQDNYYMDVWGKGTTVIVSSASTKGPSVFPLAPSSKSTSGGTAALGCLVKDYFPEPVTVSWNSGALTSGVHTFPAVLQSSGLYSLSSVVTVPSSSLGTQTYICNVNHKPSNTKVDKRVEPKSCDKTHTCPPCPAPEFEGGPSVFLFPPKPKDTLMISRTPEVTCVVVAVSHEDPEVKFNWYVDGVEVHNAKTKPREEQYNSTYRVVSVLTVLHQDWLNGKEYKCKVSNKALPAPIEKTISKAKGQPREPQVYTLPPSREEMTKNQVSLTCLVKGFYPSDIAVEWESNGQPENNYKTTPPVLDSDGSFFLYSRLTVDKSRWQQGNVFSCSVMHEALHNHYTQKSLSLSPG
light 2: EIVLTQSPGTLSLSPGERATFSCRSSHSIRSRRVAWYQHKPGQAPRLVIHGVSNRASGISDRFSGSGSGTDFTLTITRVEPEDFALYYCQVYGASSYTFGQGTKLERKRTVAAPSVFIFPPSDEQLKSGTASVVCLLNNFYPREAKVQWKVDNALQSGNSQESVTEQDSKDSTYSLSSTLTLSKADYEKHKVYACEVTHQGLSSPVTKSFNRGEC
notes: Fab-arm exchange of IgG1-FAPα-FEAL and IgG1-b12-FEAR
EC50 [1]: 0.044 µg/mL

B2: IgG1-b12 (antibody)
heavy: not shown
light: EIVLTQSPGTLSLSPGERATFSCRSSHSIRSRRVAWYQHKPGQAPRLVIHGVSNRASGISDRFSGSGSGTDFTLTITRVEPEDFALYYCQVYGASSYTFGQGTKLERKRTVAAPSVFIFPPSDEQLKSGTASVVCLLNNFYPREAKVQWKVDNALQSGNSQESVTEQDSKDSTYSLSSTLTLSKADYEKHKVYACEVTHQGLSSPVTKSFNRGEC
notes: HIV gp120 antibody b12 with wild-type IgG1 Fc; also called IgG-b12
binding result [2]: binds
